# Like-named read-outs stand apart in the source and are kept apart here.
# T1: MazF (Bacillus subtilis, UniProt P96622 1-116)
# T1 sequence: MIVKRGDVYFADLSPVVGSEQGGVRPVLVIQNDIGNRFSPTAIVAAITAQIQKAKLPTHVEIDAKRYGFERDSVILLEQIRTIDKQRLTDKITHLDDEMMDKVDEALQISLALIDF
# Key:
# [1] = target: the molecule itself; experiment: crystal structure
# [2] = target: the molecule itself; experiment: crystal structure; remark: listed apart in the source
# [3] = target: T1, MazF; experiment: ITC
Binder,stoichiometry N [2],also measured
"Bacillus subtilis MazF (toxin, mRNA interferase), expressed alone from pET-SUMO (enzyme) MIVKRGDVYFADLSPVVGSEQGGVRPVLVIQNDIGNRFSPTAIVAAITAQIQKAKLPTHVEIDAKRYGFERDSVILLEQIRTIDKQRLTDKITHLDDEMMDKVDEALQISLALIDF",–,stoichiometry N [1]: 2
"Bacillus subtilis MazF coexpressed with MazE from modified pRSFDuet-1 (enzyme, selenomethionine-labelled (for the crystals)) MIVKRGDVYFADLSPVVGSEQGGVRPVLVIQNDIGNRFSPTAIVAAITAQIQKAKLPTHVEIDAKRYGFERDSVILLEQIRTIDKQRLTDKITHLDDEMMDKVDEALQISLALIDF",2,–
"UUUACAUAA (ssRNA, 2'-deoxyuridine at position 3 (other residues ribo)) [uncleavable 9-mer RNA UUdUACAUAA]",–,Kd [3]: 64 nM
"Bacillus subtilis MazE (antitoxin) coexpressed with MazF from modified pRSFDuet-1 (natural protein, selenomethionine-labelled (for the crystals)) MSESSARTEMKISLPENLVAELDGVAMREKRSRNELISQAVRAYVSERTTRHNRDLMRRGYMEMAKINLNISSEAHFAECEAETTVERLVSGG",2,–
